Among the data in paper PMC5830531 are Kd values, retold here.

What all share (assay): EMSA
A general note: Mobility shift assays separate free from complexed probe on a gel.

The subject of data set [1] is MBP-A3H m1 monomer (Homo sapiens (haplotype II)). The settings on record: EMSA: 50 mM HEPES pH 7.5, 250 mM NaCl, 1 mM DTT, 2.5 mM EDTA, 10% glycerol, on ice 10 min, protein up to 8 uM, 8% native PAGE.
In data set [2] the test system is MBP-A3H m1+W115A/C116S monomer (Homo sapiens (haplotype II)). The settings on record: EMSA: 50 mM HEPES pH 7.5, 250 mM NaCl, 1 mM DTT, 2.5 mM EDTA, 10% glycerol, on ice 10 min, protein up to 8 uM, 8% native PAGE.
Data set [3] has as its system MBP-A3H m1+H114A monomer (Homo sapiens (haplotype II)). The settings on record: EMSA: 50 mM HEPES pH 7.5, 250 mM NaCl, 1 mM DTT, 2.5 mM EDTA, 10% glycerol; on ice 10 min; protein up to 8 uM; 1 nM RNA or 10 nM DNA; 8% native PAGE; n=3 ….
[4] abbreviates: smeared bands, approximate, 1 nM RNA or 10 nM …, n=3, Table.

For orientation: Kd means the constant that tells how readily two partners part at equilibrium. With 8 nt ssDNA, the Kd in data set [1] (setting [4]) was determined as 983 nM; in data set [2] (setting [4]), 2960 nM.
Consider 13 nt ssDNA, for which the dissociation constant (Kd) in data set [1] (approximate estimate, monomer assigned from the monomer comparison, 1 nM RNA or 10 nM DNA, n=3 …) was 272 nM; in data set [2] (approximate estimate, 1 nM RNA or 10 nM DNA, n=3 …), 497 nM.
For 50 nt ssRNA, the Kd in data set [1] (1 nM RNA or 10 nM DNA, n=3 …) turned out to be 8 nM; in data set [3], 34 nM; in data set [2] (1 nM RNA or 10 nM DNA, n=3 …) it was 12 nM.
